What all share (experiment): cell-based or functional assay
The target of assay [1] is T1, human CD38 (human, UniProt P28907 1-300).
The target in assay [2] is T1, human CD38. The source holds these as a separate data set.
Assay [3] concerns the target T1, human CD38. The source holds these as a separate data set.
The target in assay [4] is T1, human CD38. This is another data set of the same source.

B1: -024 (antibody, V domains shown)
VH: EVQLVQSGAEVKKPGESLKISCKGSGYSFSNYWIGWVRQMPGKGLEWMGIIYPHDSDARYSPSFQGQVTFSADKSISTAYLQWSSLKASDTAMYYCARHVGWGSRYWYFDLWGRGTLVTVSS
VL: EIVLTQSPATLSLSPGERATLSCRASQSVSSYLAWYQQKPGQAPGLLIYDASNRASGIPARFSGSGSGTDFTLTISSLEPEDFAVYYCQQRSNWPLTFGGGTKVEIK
Turning to B1, in the assay with human CD38 [1], the “EC50 of CDC (PI-positive cells), CD38-CHO cells” value was found to be 0.24 µg/mL and the “EC50 of CDC (PI-positive cells), Daudi-luc cells” value was more than 90 µg/mL. Further, in the assay with human CD38 [2], the “EC50 of ADCC (51Cr release), Daudi-luc target cells” value is 0.0097 µg/mL and the “EC50 of ADCC (51Cr release), fresh MM tumor cells” value came out at 0.056 µg/mL.

B2: -003 (antibody, V domains shown)
VH: not shown
VL: DIQMTQSPSSLSASVGDRVTITCRASQGISSWLAWYQQKPEKAPKSLIYAASSLQSGVPSRFSGSGSGTDFTLTISSLQPEDFATYYCQQYNSYPRTFGQGTKVEIK
As for B2, in the assay with human CD38 [1], the “EC50 of CDC (PI-positive cells), CD38-CHO cells” value came out at 3.14 µg/mL and the “EC50 of CDC (PI-positive cells), Daudi-luc cells” value is more than 90 µg/mL. Further, the “EC50 of CDC, CHO-CD38 cells (n = 2)” value with human CD38 [3] stood at 4.5 µg/mL. Moreover, the “Log EC50 of ADCC, Daudi target cells (n=5)” value with human CD38 [4] worked out at 1.17. For the same molecule, in the assay with human CD38 [2], the “EC50 of ADCC (51Cr release), Daudi-luc target cells” value came to 0.009 µg/mL and the “EC50 of ADCC (51Cr release), fresh MM tumor cells” value is 0.027 µg/mL.

The record behind these values is patent publication US20090076249A1 (published 2009).
